Laboratory results taken from paper PMC3863973 (Nature Communications, 2013).
Numbering of substitutions follows the chain as printed.

T1: His-tagged KaiC-WT (Synechococcus elongatus PCC 7942, UniProt Q79PF4 1-519)
T1 sequence: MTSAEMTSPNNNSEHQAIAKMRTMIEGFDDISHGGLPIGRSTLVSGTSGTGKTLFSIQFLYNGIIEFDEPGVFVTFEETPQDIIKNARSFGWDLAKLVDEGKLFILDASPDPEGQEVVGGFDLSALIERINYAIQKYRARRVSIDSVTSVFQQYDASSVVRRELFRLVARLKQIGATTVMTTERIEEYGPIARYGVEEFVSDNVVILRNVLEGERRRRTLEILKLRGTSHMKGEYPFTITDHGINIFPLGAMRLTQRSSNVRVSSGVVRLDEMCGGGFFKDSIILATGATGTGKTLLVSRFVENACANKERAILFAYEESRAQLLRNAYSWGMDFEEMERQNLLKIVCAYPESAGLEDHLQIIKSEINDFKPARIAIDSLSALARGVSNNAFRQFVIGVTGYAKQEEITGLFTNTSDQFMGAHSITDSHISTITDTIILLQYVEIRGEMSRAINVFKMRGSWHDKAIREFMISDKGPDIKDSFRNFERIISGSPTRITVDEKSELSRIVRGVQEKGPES

T2: FLAG-tagged KaiC-E318Q (Synechococcus elongatus PCC 7942, UniProt Q79PF4 1-519, E318Q)
T2 sequence: T1 sequence with E318Q

B1: FLAG-tagged KaiC-WT (enzyme)
chain: T1 sequence
B2: His-tagged KaiC-AA (enzyme)
chain: T1 sequence with S431A, T432A
B3: His-tagged KaiC-DA (enzyme)
chain: T1 sequence with S431D, T432A
B4: His-tagged KaiC-AE (enzyme)
chain: T1 sequence with S431A, T432E

What was measured:
[1] = target: mutant KaiC (His-tagged KaiC-AA, -DE, -DA or -AE, as a group); experiment: pull-down
[2] = target: B4; experiment: pull-down
[3] = target: B2; experiment: pull-down
[4] = target: T1, His-tagged KaiC-WT; experiment: pull-down
[5] = target: B3; experiment: pull-down
[6] = target: T2, FLAG-tagged KaiC-E318Q; experiment: co-IP
[7] = target: B1; experiment: co-IP

Binder: B1
- stoichiometry N [1]: 4 to 5
- binding result [2]: binds
- binding result [3]: binds
- binding result [4]: binds
- binding result [5]: binds

Binder: B2
- stoichiometry N [6]: 1

Binder: B3
- stoichiometry N [7]: ~1

Binder: B4
- stoichiometry N [7]: ~1
